{
  "source": "patent US20110301120A1",
  "about": "“USE OF A CHITOSAN POLYMER FOR HEPARIN NEUTRALIZATION” (UNIWERSYTET JAGIELLONSKI, priority 2009, published 2011)",
  "key": {"[1]": {"test": "Interaction of heparin with cationically-modified chitosan at pH 7.4 (Azure A method)", "assay_type": "binding", "procedure": "The concentration of in solution was determined spectrophotometrically using Azure A. 0.9 ml of proper buffer was added to 0.1 ml of heparin solution, followed by addition of 1.0 ml of Azure A solution at 8.0·10^−5 M and the absorption spectrum of the obtained solution was measured. The concentration of heparin was determined on the basis of the intensity of absorption band at 630 nm, which corresponds to monomeric molecules of Azure A. The concentration of free heparin after addition of chitosan was determined by mixing at defined proportions of chitosan solutions in acetic acid. After 10 minutes of energetic shaking the mixtures obtained were centrifuged at 3000 rpm in order to separate the insoluble complex. The concentration of free heparin was determined in the supernatant.\nThe interaction of modified polymers with heparin in the aqueous solution at pH 7.4 was studied (FIG. 2). By measuring heparin concentration with Azure A method it was shown that cationically-modified chitosan effectively complexes free heparin in solution at pH 7.4.\nThe efficiency of heparin complexation by both polymers obtained was compared with the efficiency of protamine, a heparin-reversal agent commonly used in medicine (Table 1)."}, "[2]": {"test": "Dynamic light scattering: size of polymer objects and of their complexes with heparin", "assay_type": "physicochemical", "conditions": "PBS", "procedure": "The UV spectra were recorded using a diode-array HP 8452A spectrophotometer in quartz cuvettes with 1 cm optical path. The microscopic images were obtained using Nikon TE-2000 fluorescence microscope. The size of aggregates in suspensions was determined using a Zetasizer Nano ZS instrument from Malvern Instruments Ltd.\nUsing dynamic light scattering technique the size of objects formed by protamine and ChGl1 in the aqueous solution at pH 7.4 was measured (FIG. 3). The solutions of polymers were prepared in the PBS buffer. The heparin-protamine and heparin-ChGl complexes were obtained by mixing the respective solutions at the volume ratio corresponding to the minimum amount of the polycation needed to completely bind heparin in the solution.\nFor such mixtures the size and polydispersity of particles were measured."}, "[3]": {"conditions": "if not neutralized or removed from the bloodstream; cited from earlier work"}, "[4]": {"conditions": "fast injection, dogs; cited from earlier work"}, "[5]": {"conditions": "minimum amount of polycation needed to completely bind heparin"}},
  "data": [
    {"substance": "protamine", "values": [
      {"measurement": "Mass required to bind 1 mg of heparin in PBS buffer at pH 7.4", "setting": "[1]", "result": 1.2661, "unit": "mg"},
      {"measurement": "size (diameter) of objects formed by the polymer", "setting": "[2]; pH 7.4, without heparin", "result": "about 4 nm"},
      {"measurement": "diameter of aggregates with heparin", "setting": "[2]; [5]", "result": "≤ 10", "unit": "μm"},
      {"measurement": "polydispersity of complexes with heparin", "setting": "[2]; [5]", "result": "very polydisperse"},
      {"measurement": "patients with adverse effects", "setting": "[3]", "result": "about 10%"},
      {"measurement": "hemodynamic effect", "setting": "[4]", "result": "severe hypotension"}
    ]}
  ]
}
